Test results published in publication PMC5026484 (eLife, 2016).

Target: the molecule itself
Assay: crystal structure; X-ray; sitting/hanging-drop vapour diffusion, 20°C; data from beamline X10SA, SLS

B1: Selenomethionine derivative of Mical-3 residues 1841-1990 (domain or fragment, human, UniProt Q7RTP6 1841-1990, looked up)
chain: KQEELKRLHRAQIIQRQLQQVEERQRRLEERGVAVEKALRGEAGMGKKDDPKLMQEWFKLVQEKNAMVRYESELMIFARELELEDRQSRLQQELRERMAVEDHLKTEEELSEEKQILNEMLEVVEQRDSLVALLEEQRLREREEDKDLEA
modifications: selenomethionine in place of methionine
notes: Mical-3, human, whole predicted bMERB domain, residues 1841-1990 (isoform 1); printed elsewhere as 1841-1992; Two copies in the asymmetric unit of the crystal; also called SeMet Mical-3; seleno-L-methionine labelled Mical-3_(1841–1990)
B1: binds.
